According to FireProtDB (doi:10.1093/jb/mvq079):

Details: Escherichia coli (strain K12), whole UniProt chain shown

B1: Divalent-cation tolerance protein CutA wild type, P69488 (protein)
chain: MLDEKSSNTASVVVLCTAPDEATAQDLAAKVLAEKLAACATLIPGATSLYYWEGKLEQEYEVQMILKTTVSHQQALLECLKSHHPYQTPELLVLPVTHGDTDYLSWLNASLR
denaturant midpoint (higher = more stable) (pH 8, 37 °C, GdnHCl, CD, Tris-HCl, reversible: yes): 2.72 M
Tm (pH 9, Thermal, DSC, glycine Buffer, transition: 2, reversible: no): 89.9 °C
